The values that follow come from PMC11742849.

The assay deals with recombinant mouse TfR extracellular domain protein (UniProt Q62351). The assay is described as follows: ELISA. The following applies: ligand concentration 20 nM (est. from x axis); mTfR coated on plate; signal normalized to each construct's own maximum; parent: est. 78; read off a plot. Background: An ELISA detects its analyte on a solid surface through an enzyme-linked reagent.
Chain of UniProt Q62351 (Q62351 89-763): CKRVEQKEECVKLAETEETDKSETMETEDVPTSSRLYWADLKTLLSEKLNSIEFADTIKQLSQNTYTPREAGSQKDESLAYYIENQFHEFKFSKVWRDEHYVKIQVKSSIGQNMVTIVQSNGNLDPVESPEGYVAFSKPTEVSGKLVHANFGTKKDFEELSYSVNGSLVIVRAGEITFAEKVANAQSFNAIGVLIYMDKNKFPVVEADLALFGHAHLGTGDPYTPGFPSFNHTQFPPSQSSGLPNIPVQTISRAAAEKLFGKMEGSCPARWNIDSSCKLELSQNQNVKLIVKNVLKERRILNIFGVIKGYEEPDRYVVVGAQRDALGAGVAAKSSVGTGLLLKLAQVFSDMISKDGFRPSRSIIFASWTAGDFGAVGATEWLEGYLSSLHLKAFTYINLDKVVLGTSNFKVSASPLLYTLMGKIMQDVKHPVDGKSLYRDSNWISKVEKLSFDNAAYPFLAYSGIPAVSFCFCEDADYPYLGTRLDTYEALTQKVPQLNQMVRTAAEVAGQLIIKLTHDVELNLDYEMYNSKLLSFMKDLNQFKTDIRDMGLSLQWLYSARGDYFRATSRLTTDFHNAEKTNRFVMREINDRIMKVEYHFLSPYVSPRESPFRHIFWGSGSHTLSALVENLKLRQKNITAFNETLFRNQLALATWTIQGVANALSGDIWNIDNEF

With scFc-scFv8D3 Y103F, the response (% of own maximum OD450) was determined as 24.

As for scFc-scFv8D3 T100V, the response (% of own maximum OD450) was 26. To scFc-scFv8D3 S101A belongs 39; to scFc-scFv8D3 H102A, 17.
